This is an account of results in publication doi:10.1101/2022.10.08.511438.

The target of experiment [1] is dihydrolipoyl succinyltransferase (E2o), core of the oxoglutarate dehydrogenase complex, Chaetomium thermophilum (C. thermophilum (endogenous in mycelium lysate)). Kind of experiment: label-free MS quantitation.
Experiment [2] has the same target. As to the kind of experiment: cryo-EM structure.

As to “dihydrolipoyl dehydrogenase (E3), Chaetomium thermophilum (enzyme)”, in experiment [1], the stoichiometry N (E3 dimers relative to 24 E2o subunits) was found to be 4.
For orientation: stoichiometry N means a count of units in the complex or per binding partner. With “dihydrolipoyl succinyltransferase (E2o), core of the oxoglutarate dehydrogenase complex, Chaetomium thermophilum (enzyme)”, the stoichiometry N in experiment [2] was found to be 24 subunits.
In the case of “oxoglutarate dehydrogenase (E1o) of the oxoglutarate dehydrogenase complex (OGDHc), Chaetomium thermophilum (enzyme)”, in experiment [1], the stoichiometry N (E1o dimers around the 24-mer E2o core) was 9 and the stoichiometry N (E1o dimers relative to 24 E2o subunits) was below 10.
